What was measured:
[1] = biological target: Deinococcus radiodurans LuxS (Deinococcus radiodurans); assay: X-ray crystal structure, P21 form, homodimer interface
[2] = biological target: Deinococcus radiodurans LuxS (Deinococcus radiodurans); assay: X-ray crystal structure, C2 form, crystallographic dimer interface
[3] = biological target: Haemophilus influenzae LuxS (Haemophilus influenzae); assay: X-ray crystal structure, homodimer interface
[4] = biological target: Helicobacter pylori LuxS (Helicobacter pylori); assay: X-ray crystal structure, homodimer interface

In the case of Deinococcus radiodurans LuxS (enzyme), the surface area buried through this interaction [1] is reported as 3930 Å^2 and the surface area buried through this interaction [2] is reported as 3200 Å^2.

Work on Haemophilus influenzae LuxS (enzyme) yielded a surface area buried through this interaction [3] of 4160 Å^2.

Helicobacter pylori LuxS (enzyme) showed a surface area buried through this interaction [4] of 4180 Å^2.
